System: Lewis lung carcinoma (3LL)
Assay: Lewis lung carcinoma (3LL) survival, 1st experiment (Table A)
Type: in vivo, C57B1/6 female mice
Details: 100 days; IM-2 0.5 mg/kg/day alone, IM-2 0.5 mg/kg + Il-2 0.05 μg/animal, or IL-2 0.1 μg/animal alone; i.p., 3 weekly cycles
Experimental: Animals: 3-week-old C57B1/6 female mice were used in all the experiments (Table A, Table B, Table C)
Tumor: Lewis lung carcinoma (3LL) was the tumor selected for all the in vivo assessments (Table A, Table B, Table C) in these experiments, with the cells maintained in culture medium and inoculated subcutaneously in the animals at the concentration of 6×10^5 cancer cells (3 LL) for each animal.
Treatments: All treatments began 24 hours after the inoculation of cancer cells.
Observation period: The animals were evaluated during an observation period of 100 days in the survival experiment.
A fourth batch of 20 animals (Group 4) inoculated with 3 LL cells (6×10^5 cells/animal), was treated with 0.5 mg/kg/day of the proteic aggregate of ammonium and magnesium phospholinoleate-palmitoleate anhydride (Table A—Group 4—IM-2) and Interleukin-12 (IL-12), 0.05 g/animal given jointly by intraperitoneal injections in 3 weekly cycles. The animals were followed up for 100 days.
A fifth batch of 20 animals (Table A—Group 5) inoculated with 3 LL cells (6×10^5 cells/animal) was treated with Interleukin-12 (IL-12), 0.1 μg/animal applied by intraperitoneal injection in 3 weekly cycles. The animals were followed up for 100 days, and the number of survivors was expressed in percentage.

B1: Interleukin-12 (IL-12) (protein, UniProt P29459 23-219; P29460 23-328, looked up)
Interleukin-12 subunit alpha: RNLPVATPDPGMFPCLHHSQNLLRAVSNMLQKARQTLEFYPCTSEEIDHEDITKDKTSTVEACLPLELTKNESCLNSRETSFITNGSCLASRKTSFMMALCLSSIYEDLKMYQVEFKTMNAKLLMDPKRQIFLDQNMLAVIDELMQALNFNSETVPQKSSLEEPDFYKTKIKLCILLHAFRIRAVTIDRVMSYLNAS
Interleukin-12 subunit beta: IWELKKDVYVVELDWYPDAPGEMVVLTCDTPEEDGITWTLDQSSEVLGSGKTLTIQVKEFGDAGQYTCHKGGEVLSHSLLLLHKKEDGIWSTDILKDQKEPKNKTFLRCEAKNYSGRFTCWWLTTISTDLTFSVKSSRGSSDPQGVTCGAATLSAERVRGDNKEYEYSVECQEDSACPAAEESLPIEVMVDAVHKLKYENYTSSFFIRDIIKPDPPKNLQLKPLKNSRQVEVSWEYPDTWSTPHSYFSLTFCVQVQGKSKREKKDRVFTDKTSATVICRKNASISVRAQDRYYSSSWSEWASVPCS
- % Survivors: 50%
